Measured values from US20260049138A1 (Chugai, published 2026).

Biological target: T1, CD3ε homodimer protein (human, UniProt P07766 23-126, limits assumed)
T1 construct: also called CD3 (CD3ε)
Test: SPR Biacore T200, CD3ε homodimer on chip;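 further: Light-chain single-residue variant antibodies injected over amine-coupled CD3ε homodimer on a CM4 chip at 25 °C, bound amount divided by that of the GLS3000-containing antibody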
Experimental: Each one-amino acid altered form constructed, expressed, and purified in the paragraph (6-2) was evaluated using Biacore T200 (GE Healthcare Japan Corp.). An appropriate amount of CD3ε homodimer protein was immobilized onto Sensor chip CM4 (GE Healthcare Japan Corp.) by the amine coupling method. Then, the antibody having an appropriate concentration was injected thereto as an analyte and allowed to interact with the CD3ε homodimer protein on the sensor chip. Then, the sensor chip was regenerated by the injection of 10 mmol/L glycine-HCl (pH 1.5). The assay was conducted at 25° C., and HBS-EP+ (GE Healthcare Japan Corp.) was used as a running buffer. […] Each parameter was calculated using Biacore T200 Evaluation Software (GE Healthcare Japan Corp.).
Specifically, when the amount of the GLS3000-containing antibody bound was defined as X and the amount of the L chain one-amino acid altered form bound was defined as Y, a value of Z (ratio of amounts bound)=Y/X was used.

T1 sequence (P07766 23-126 limits assumed): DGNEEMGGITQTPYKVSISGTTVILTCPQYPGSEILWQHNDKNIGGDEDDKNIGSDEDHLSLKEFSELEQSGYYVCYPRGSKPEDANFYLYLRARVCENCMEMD

| Binder | ratio of amount bound vs unaltered GLS3000 |
| --- | --- |
| GLS3000 G91E one-arm antibody (antibody, human IgG1, kappa, L234A L235A, N297A, name in Kabat numbering) heavy: QVQLVESGGGVVQPGRSLRLSCAASGFTFSNAWMHWVRQAPGKGLEWVAQIKAKSNNYATYYAESVKGRFTISRDDSKNSLYLQMNSLKTEDTAVYYCRYVHYGAYYGVDAWGQGTTVTVSSASTKGPSVFPLAPSSKSTSGGTAALGCLVKDYFPEPVTVSWNSGALTSGVHTFPAVLQSSGLYSLSSVVTVPSSSLGTQTYICNVNHKPSNTKVDKKVEPKSCDKTHTCPPCPAPEAAGGPSVFLFPPKPKDTLMISRTPEVTCVVVDVSHEDPEVKFNWYVDGVEVHNAKTKPREEQYASTYRVVSVLTVLHQDWLNGKEYKCKVSNKALPAPIEKTISKAKGQPREPQVYTLPPSRCELTKNQVSLSCAVKGFYPSDIAVEWESNGQPENNYKTTPPVLDSDGSFFLVSKLTVDKSRWQQGNVFSCSVMHEALHNHYTQKSLSLSPDYKDDDDK EPKSSDKTHTCPPCPAPELLGGPSVFLFPPKPKDTLMISRTPEVTCVVVDVSHEDPEVKFNWYVDGVEVHNAKTKPREEQYNSTYRVVSVLTVLHQDWLNGKEYKCKVSNKALPAPIEKTISKAKGQPREPQVCTLPPSRDELTKNQVSLWCLVKGFYPSDIAVEWESNGQPENNYKTTPPVLDSDGSFFLYSKLTVDKSRWQQGNVFSCSVMHEALHNRYTQKSLSLSP light: DIVMTQSPLSLPVTPGEPASISCRSSQSLVHSNRNTYLHWYQQKPGQAPRLLIYKVSNRFSGVPDRFSGSGSGTDFTLKISRVEAEDVGVYYCGQETQVPYTFGQGTKLEIKRTVAAPSVFIFPPSDEQLKSGTASVVCLLNNFYPREAKVQWKVDNALQSGNSQESVTEQDSKDSTYSLSSTLTLSKADYEKHKVYACEVTHQGLSSPVTKSFNRGEC | 0.16 |
| GLS3000 G91S one-arm antibody (antibody, human IgG1, kappa, L234A L235A, N297A, name in Kabat numbering) heavy: QVQLVESGGGVVQPGRSLRLSCAASGFTFSNAWMHWVRQAPGKGLEWVAQIKAKSNNYATYYAESVKGRFTISRDDSKNSLYLQMNSLKTEDTAVYYCRYVHYGAYYGVDAWGQGTTVTVSSASTKGPSVFPLAPSSKSTSGGTAALGCLVKDYFPEPVTVSWNSGALTSGVHTFPAVLQSSGLYSLSSVVTVPSSSLGTQTYICNVNHKPSNTKVDKKVEPKSCDKTHTCPPCPAPEAAGGPSVFLFPPKPKDTLMISRTPEVTCVVVDVSHEDPEVKFNWYVDGVEVHNAKTKPREEQYASTYRVVSVLTVLHQDWLNGKEYKCKVSNKALPAPIEKTISKAKGQPREPQVYTLPPSRCELTKNQVSLSCAVKGFYPSDIAVEWESNGQPENNYKTTPPVLDSDGSFFLVSKLTVDKSRWQQGNVFSCSVMHEALHNHYTQKSLSLSPDYKDDDDK EPKSSDKTHTCPPCPAPELLGGPSVFLFPPKPKDTLMISRTPEVTCVVVDVSHEDPEVKFNWYVDGVEVHNAKTKPREEQYNSTYRVVSVLTVLHQDWLNGKEYKCKVSNKALPAPIEKTISKAKGQPREPQVCTLPPSRDELTKNQVSLWCLVKGFYPSDIAVEWESNGQPENNYKTTPPVLDSDGSFFLYSKLTVDKSRWQQGNVFSCSVMHEALHNRYTQKSLSLSP light: DIVMTQSPLSLPVTPGEPASISCRSSQSLVHSNRNTYLHWYQQKPGQAPRLLIYKVSNRFSGVPDRFSGSGSGTDFTLKISRVEAEDVGVYYCGQSTQVPYTFGQGTKLEIKRTVAAPSVFIFPPSDEQLKSGTASVVCLLNNFYPREAKVQWKVDNALQSGNSQESVTEQDSKDSTYSLSSTLTLSKADYEKHKVYACEVTHQGLSSPVTKSFNRGEC | 0.26 |
| GLS3000 G91T one-arm antibody (antibody, human IgG1, kappa, L234A L235A, N297A, name in Kabat numbering) heavy: QVQLVESGGGVVQPGRSLRLSCAASGFTFSNAWMHWVRQAPGKGLEWVAQIKAKSNNYATYYAESVKGRFTISRDDSKNSLYLQMNSLKTEDTAVYYCRYVHYGAYYGVDAWGQGTTVTVSSASTKGPSVFPLAPSSKSTSGGTAALGCLVKDYFPEPVTVSWNSGALTSGVHTFPAVLQSSGLYSLSSVVTVPSSSLGTQTYICNVNHKPSNTKVDKKVEPKSCDKTHTCPPCPAPEAAGGPSVFLFPPKPKDTLMISRTPEVTCVVVDVSHEDPEVKFNWYVDGVEVHNAKTKPREEQYASTYRVVSVLTVLHQDWLNGKEYKCKVSNKALPAPIEKTISKAKGQPREPQVYTLPPSRCELTKNQVSLSCAVKGFYPSDIAVEWESNGQPENNYKTTPPVLDSDGSFFLVSKLTVDKSRWQQGNVFSCSVMHEALHNHYTQKSLSLSPDYKDDDDK EPKSSDKTHTCPPCPAPELLGGPSVFLFPPKPKDTLMISRTPEVTCVVVDVSHEDPEVKFNWYVDGVEVHNAKTKPREEQYNSTYRVVSVLTVLHQDWLNGKEYKCKVSNKALPAPIEKTISKAKGQPREPQVCTLPPSRDELTKNQVSLWCLVKGFYPSDIAVEWESNGQPENNYKTTPPVLDSDGSFFLYSKLTVDKSRWQQGNVFSCSVMHEALHNRYTQKSLSLSP light: DIVMTQSPLSLPVTPGEPASISCRSSQSLVHSNRNTYLHWYQQKPGQAPRLLIYKVSNRFSGVPDRFSGSGSGTDFTLKISRVEAEDVGVYYCGQTTQVPYTFGQGTKLEIKRTVAAPSVFIFPPSDEQLKSGTASVVCLLNNFYPREAKVQWKVDNALQSGNSQESVTEQDSKDSTYSLSSTLTLSKADYEKHKVYACEVTHQGLSSPVTKSFNRGEC | 0.26 |
| GLS3000 G91P one-arm antibody (antibody, human IgG1, kappa, L234A L235A, N297A, name in Kabat numbering) heavy: QVQLVESGGGVVQPGRSLRLSCAASGFTFSNAWMHWVRQAPGKGLEWVAQIKAKSNNYATYYAESVKGRFTISRDDSKNSLYLQMNSLKTEDTAVYYCRYVHYGAYYGVDAWGQGTTVTVSSASTKGPSVFPLAPSSKSTSGGTAALGCLVKDYFPEPVTVSWNSGALTSGVHTFPAVLQSSGLYSLSSVVTVPSSSLGTQTYICNVNHKPSNTKVDKKVEPKSCDKTHTCPPCPAPEAAGGPSVFLFPPKPKDTLMISRTPEVTCVVVDVSHEDPEVKFNWYVDGVEVHNAKTKPREEQYASTYRVVSVLTVLHQDWLNGKEYKCKVSNKALPAPIEKTISKAKGQPREPQVYTLPPSRCELTKNQVSLSCAVKGFYPSDIAVEWESNGQPENNYKTTPPVLDSDGSFFLVSKLTVDKSRWQQGNVFSCSVMHEALHNHYTQKSLSLSPDYKDDDDK EPKSSDKTHTCPPCPAPELLGGPSVFLFPPKPKDTLMISRTPEVTCVVVDVSHEDPEVKFNWYVDGVEVHNAKTKPREEQYNSTYRVVSVLTVLHQDWLNGKEYKCKVSNKALPAPIEKTISKAKGQPREPQVCTLPPSRDELTKNQVSLWCLVKGFYPSDIAVEWESNGQPENNYKTTPPVLDSDGSFFLYSKLTVDKSRWQQGNVFSCSVMHEALHNRYTQKSLSLSP light: DIVMTQSPLSLPVTPGEPASISCRSSQSLVHSNRNTYLHWYQQKPGQAPRLLIYKVSNRFSGVPDRFSGSGSGTDFTLKISRVEAEDVGVYYCGQPTQVPYTFGQGTKLEIKRTVAAPSVFIFPPSDEQLKSGTASVVCLLNNFYPREAKVQWKVDNALQSGNSQESVTEQDSKDSTYSLSSTLTLSKADYEKHKVYACEVTHQGLSSPVTKSFNRGEC | 0.27 |
